Patent publication US20240384250A1, “FIBROBLAST GROWTH FACTOR 23 MODULATING COMPOUNDS” (THE UAB RESEARCH FOUNDATION, priority 2021, published 2024)
“Also recorded” adds a separate entry of the source.

System: FGF23 and FGFR1c
Assay: sKL detection assay (FGF23 coated, Fc-FGFR1c detection)
Format: binding
Conditions: for binding in the sKL detection assay: commercial preparations compared with the sKL protein; for binding in the sKL detection assay, total cell lysates: lysates of stably transfected HEK293T cells
Description: Commercially available ELISA plates (Maxisorp) are coated with 5 μg/ml of recombinant FGF23 protein (R&D Systems) and unspecific binding sites are blocked with BSA/Tween20. Wells are incubated with sKL in solution (which can be plasma, serum or cell culture supernatants) for one hour, washed and incubated for one hour with 750 ng/ml of recombinant FGFR1α(IIIc)-Fc (R&D Systems), which is a chimeric protein consisting of the FGFR1 ectodomain and the Fc region of a human IgG. FGFR1 only binds to FGF23 in the presence of sKL, and the formation of this trimeric sandwich complex is then measured by detecting the presence of the Fc domain that is coupled to FGFR1. To do so, wells are washed and incubated with 400 ng/ml of anti-human IgG conjugated to horseradish peroxidase (HRP; Promega). Wells are washed and incubated with HRP substrate. After development for about 30 minutes, reactions are analyzed on a standard plate reader via absorptions at […]. Incubations with recombinant sKL dissolved in PBS at defined concentrations serve as standards that are used as reference values to determine sKL concentrations in the studied human samples. […]
HEK293 cells were plated in 10 cm dishes supplemented with 10% FBS (26140079, Gibco) and I× Pen/Strep (15140122, Gibco). Cells were transfected with appropriate klotho or green fluorescent protein cDNA constructs. After 2 days, clones were selected by using 1 μg/ml of puromycin (A1113803, Gibco). Cells were then split and plated in 10 cm dishes in DMEM supplemented with FBS and puromycin. After 48 hours, cells were lysed in 1 ml of RIPA buffer with the addition of a protease inhibitor (11873580001, Roche) for 30 minutes. The mixture was then centrifuged at 20,000 g for 1 hour to remove all cell debris. Activity assay was run as above in the sKL halflife study. Instead of serum, 20 μl of the indicated cell lysate was used and combined with 80 μl of activity assay buffer.

Molecule	binding in the sKL detection assay	binding in the sKL detection assay, total cell lysates	binding in the sKL detection assay, total cell lysates (listed as full-length klotho)
Com.sKL: commercial preparation, mouse sKL from R&D Systems (1819KL050), aa 35-982 (protein) AEPGQGAQTWARFARAPAPEAAGLLHDTFPDGFLWAVGSAAYQTEGGWRQHGKGASIWDTFTHHSGAAPSDSPIVVAPSGAPSPPLSSTGDVASDSYNNVYRDTEGLRELGVTHYRFSISWARVLPNGTAGTPNREGLRYYRRLLERLRELGVQPVVTLYHWDLPQRLQDTYGGWANRALADHFRDYAELCFRHFGGQVKYWITIDNPYVVAWHGYATGRLAPGVRGSSRLGYLVAHNLLLAHAKVWHLYNTSFRPTQGGRVSIALSSHWINPRRMTDYNIRECQKSLDFVLGWFAKPIFIDGDYPESMKNNLSSLLPDFTESEKRLIRGTADFFALSFGPTLSFQLLDPNMKFRQLESPNLRQLLSWIDLEYNHPPIFIVENGWFVSGTTKRDDAKYMYYLKKFIMETLKAIRLDGVDVIGYTAWSLMDGFEWHRGYSIRRGLFYVDFLSQDKELLPKSSALFYQKLIEDNGFPPLPENQPLEGTFPCDFAWGVVDNYVQVDTTLSQFTDPNVYLWDVHHSKRLIKVDGVVAKKRKPYCVDFSAIRPQITLLREMRVTHFRFSLDWALILPLGNQTQVNHTVLHFYRCMISELVHANITPVVALWQPAAPHQGLPHALAKHGAWENPHTALAFADYANLCFKELGHWVNLWITMNEPNTRNMTYRAGHHLLRAHALAWHLYDDKFRAAQKGKISIALQADWIEPACPFSQNDKEVAERVLEFDIGWLAEPIFGSGDYPRVMRDWLNQKNNFLLPYFTEDEKKLVRGSFDFLAVSHYTTILVDWEKEDPMKYNDYLEVQEMTDITWLNSPSQVAVVPWGLRKVLNWLRFKYGDLPMYVTANGIDDDPHAEQDSLRIYYIKNYVNEALKAYVLDDINLCGYFAYSLSDRSAPKSGFYRYAANQFEPKPSMKHYRKIIDSNGFLGSGTLGRFCPEEYTVCTECGFFQTRK	significantly reduced binding	–	–
KL1: human klotho domain 1 (KL1) from PeproTech, aa 34-549 (protein) EPGDGAQTWARFSRPPAPEAAGLFQGTFPDGFLWAVGSAAYQTEGGWQQHGKGASIWDTFTHHPLAPPGDSRNASLPLGAPSPLQPATGDVASDSYNNVFRDTEALRELGVTHYRFSISWARVLPNGSAGVPNREGLRYYRRLLERLRELGVQPVVTLYHWDLPQRLQDAYGGWANRALADHFRDYAELCFRHFGGQVKYWITIDNPYVVAWHGYATGRLAPGIRGSPRLGYLVAHNLLLAHAKVWHLYNTSFRPTQGGQVSIALSSHWINPRRMTDHSIKECQKSLDFVLGWFAKPVFIDGDYPESMKNNLSSILPDFTESEKKFIKGTADFFALCFGPTLSFQLLDPHMKFRQLESPNLRQLLSWIDLEFNHPQIFIVENGWFVSGTTKRDDAKYMYYLKKFIMETLKAIKLDGVDVIGYTAWSLMDGFEWHRGYSIRRGLFYVDFLSQDKMLLPKSSALFYQKLIEKNGFPPLPENQPLEGTFPCDFAWGVVDNYIQVDTTLSQFTDLNVYLW	cannot mediate FGF23-FGFR1c binding; also recorded: did not show any bioactivity; also recorded: no binding	–	–
KL: full-length klotho in total lysates of stably transfected HEK293T cells (protein, UniProt Q9UEF7 1-1012, looked up, full-length, full-length klotho in total lysates of stably transfected HEK293T cells) MPASAPPRRPRPPPPSLSLLLVLLGLGGRRLRAEPGDGAQTWARFSRPPAPEAAGLFQGTFPDGFLWAVGSAAYQTEGGWQQHGKGASIWDTFTHHPLAPPGDSRNASLPLGAPSPLQPATGDVASDSYNNVFRDTEALRELGVTHYRFSISWARVLPNGSAGVPNREGLRYYRRLLERLRELGVQPVVTLYHWDLPQRLQDAYGGWANRALADHFRDYAELCFRHFGGQVKYWITIDNPYVVAWHGYATGRLAPGIRGSPRLGYLVAHNLLLAHAKVWHLYNTSFRPTQGGQVSIALSSHWINPRRMTDHSIKECQKSLDFVLGWFAKPVFIDGDYPESMKNNLSSILPDFTESEKKFIKGTADFFALCFGPTLSFQLLDPHMKFRQLESPNLRQLLSWIDLEFNHPQIFIVENGWFVSGTTKRDDAKYMYYLKKFIMETLKAIKLDGVDVIGYTAWSLMDGFEWHRGYSIRRGLFYVDFLSQDKMLLPKSSALFYQKLIEKNGFPPLPENQPLEGTFPCDFAWGVVDNYIQVDTTLSQFTDLNVYLWDVHHSKRLIKVDGVVTKKRKSYCVDFAAIQPQIALLQEMHVTHFRFSLDWALILPLGNQSQVNHTILQYYRCMASELVRVNITPVVALWQPMAPNQGLPRLLARQGAWENPYTALAFAEYARLCFQELGHHVKLWITMNEPYTRNMTYSAGHNLLKAHALAWHVYNEKFRHAQNGKISIALQADWIEPACPFSQKDKEVAERVLEFDIGWLAEPIFGSGDYPWVMRDWLNQRNNFLLPYFTEDEKKLIQGTFDFLALSHYTTILVDSEKEDPIKYNDYLEVQEMTDITWLNSPSQVAVVPWGLRKVLNWLKFKYGDLPMYIISNGIDDGLHAEDDQLRVYYMQNYINEALKAHILDGINLCGYFAYSFNDRTAPRFGLYRYAADQFEPKASMKHYRKIIDSNGFPGPETLERFCPEEFTVCTECSFFHTRKSLLAFIAFLFFASIISLSLIFYYSKKGRRSYK	–	much weaker binding	negative
sBKL: soluble β-klotho in total lysates of stably transfected HEK293T cells (protein, left off: small tags and cut ends, soluble β-klotho in total lysates of stably transfected HEK293T cells) MKTGCAAGSPGNEWIFFSSDERNTRSRKTMSNRALQRSAVLSAFVLLRAVTGFSGDGKAIWDKKQYVSPVNPSQLFLYDTFPKNFSWGVGTGAFQVEGSWKTDGRGPSIWDRYVYSHLRGVNGTDRSTDSYIFLEKDLLALDFLGVSFYQFSISWPRLFPNGTVAAVNAQGLRYYRALLDSLVLRNIEPIVTLYHWDLPLTLQEEYGGWKNATMIDLFNDYATYCFQTFGDRVKYWITIHNPYLVAWHGFGTGMHAPGEKGNLTAVYTVGHNLIKAHSKVWHNYDKNFRPHQKGWLSITLGSHWIEPNRTDNMEDVINCQHSMSSVLGWFANPIHGDGDYPEFMKTGAMIPEFSEAEKEEVRGTADFFAFSFGPNNFRPSNTVVKMGQNVSLNLRQVLNWIKLEYDDPQILISENGWFTDSYIKTEDTTAIYMMKNFLNQVLQAIKFDEIRVFGYTAWTLLDGFEWQDAYTTRRGLFYVDFNSEQKERKPKSSAHYYKQIIQDNGFPLKESTPDMKGRFPCDFSWGVTESVLKPEFTVSSPQFTDPHLYVWNVTGNRLLYRVEGVRLKTRPSQCTDYVSIKKRVEMLAKMKVTHYQFALDWTSILPTGNLSKVNRQVLRYYRCVVSEGLKLGVFPMVTLYHPTHSHLGLPLPLLSSGGWLNMNTAKAFQDYAELCFRELGDLVKLWITINEPNRLSDMYNRTSNDTYRAAHNLMIAHAQVWHLYDRQYRPVQHGAVSLSLHCDWAEPANPFVDSHWKAAERFLQFEIAWFADPLFKTGDYPSVMKEYIASKNQRGLSSSVLPRFTAKESRLVKGTVDFYALNHFTTRFVIHKQLNTNRSVADRDVQFLQDITRLSSPSRLAVTPWGVRKLLAWIRRNYRDRDIYITANGIDDLALEDDQIRKYYLEKYVQEALKAYLIDKVKIKGYYAFKLTEEKSKPRFGFFTSDFRAKSSVQFYSKLISSSGLPAENRSPACGQPAEDTDCTICSFLVEKKP	–	no measurable binding activity	–
BKL: full-length β-klotho in total lysates of stably transfected HEK293T cells (protein, left off: small tags and cut ends, full-length β-klotho in total lysates of stably transfected HEK293T cells) MKTGCAAGSPGNEWIFFSSDERNTRSRKTMSNRALQRSAVLSAFVLLRAVTGFSGDGKAIWDKKQYVSPVNPSQLFLYDTFPKNFSWGVGTGAFQVEGSWKTDGRGPSIWDRYVYSHLRGVNGTDRSTDSYIFLEKDLLALDFLGVSFYQFSISWPRLFPNGTVAAVNAQGLRYYRALLDSLVLRNIEPIVTLYHWDLPLTLQEEYGGWKNATMIDLFNDYATYCFQTFGDRVKYWITIHNPYLVAWHGFGTGMHAPGEKGNLTAVYTVGHNLIKAHSKVWHNYDKNFRPHQKGWLSITLGSHWIEPNRTDNMEDVINCQHSMSSVLGWFANPIHGDGDYPEFMKTGAMIPEFSEAEKEEVRGTADFFAFSFGPNNFRPSNTVVKMGQNVSLNLRQVLNWIKLEYDDPQILISENGWFTDSYIKTEDTTAIYMMKNFLNQVLQAIKFDEIRVFGYTAWTLLDGFEWQDAYTTRRGLFYVDFNSEQKERKPKSSAHYYKQIIQDNGFPLKESTPDMKGRFPCDFSWGVTESVLKPEFTVSSPQFTDPHLYVWNVTGNRLLYRVEGVRLKTRPSQCTDYVSIKKRVEMLAKMKVTHYQFALDWTSILPTGNLSKVNRQVLRYYRCVVSEGLKLGVFPMVTLYHPTHSHLGLPLPLLSSGGWLNMNTAKAFQDYAELCFRELGDLVKLWITINEPNRLSDMYNRTSNDTYRAAHNLMIAHAQVWHLYDRQYRPVQHGAVSLSLHCDWAEPANPFVDSHWKAAERFLQFEIAWFADPLFKTGDYPSVMKEYIASKNQRGLSSSVLPRFTAKESRLVKGTVDFYALNHFTTRFVIHKQLNTNRSVADRDVQFLQDITRLSSPSRLAVTPWGVRKLLAWIRRNYRDRDIYITANGIDDLALEDDQIRKYYLEKYVQEALKAYLIDKVKIKGYYAFKLTEEKSKPRFGFFTSDFRAKSSVQFYSKLISSSGLPAENRSPACGQPAEDTDCTICSFLVEKKPLIFFGCCFISTLAVLLSITVFHHQKRRKFQKARNLQNIPLKKGHSRVFS	–	no measurable binding activity	–
